Consider three molecules from PMC6811539, “Minute-scale persistence of a GPCR conformation state triggered by non-cognate G protein interactions primes signaling” (Nature Communications, 2019).

One may read the Kd as the free concentration of one partner at which half of the binding sites on the other are occupied at equilibrium, for simple one-to-one binding.

Assay [1] has as its target T1, β2-AR-mCerulean (human, UniProt P07550 1-413).
T1 construct: human β2-adrenergic receptor, cDNA from Open Biosystems; Constructed 'in a similar manner' to the SPASM sensors; m1 stands for it there; also called β2-mCer; β2-mCerulean; source: HEK293T, transiently transfected, native membranes
Description: pull-down; binding step of the binding-and-release assay: 30 μM biotinylated Gα peptide and 100 μM isoproterenol mixed 5 min with native membranes (10 nM β2-mCer) in 20 mM HEPES, 100 mM NaCl, 45 mM KCl, 5 mM MgCl2, pH 7.4; complex depleted with streptavidin-coated magnetic beads; unbound receptor from mCer fluorescence of the supernatant; KD estimated from a single point. Conditions: one partner purified.

Assay [2] addresses T1, β2-AR-mCerulean. Briefly: cell-based or functional assay.

Where no end group is shown, it is not given here. The star is where a group is joined. Biotin = O=C1N[C@H]2[C@H](CS[C@H]2CCCCC(=O)*)N1 A value given as a limit tells only on which side of the number the result lay.

B1: biotinylated Qp (peptide)
peptide: Biotin-DTENIRFVFAAVKDTILQLNLKEYNLV
notes: Gαq C-terminal α5 peptide (Qp), last 27 residues of Gαq; also called bioQp; bioQP; source: synthetic peptide (GenScript); not shown: biotin, N-terminal, kept
In the case of B1, the Kd with β2-AR-mCerulean [1] is above 200 µM. For the molecule DTENIRFVFAAVKDTILQLNLKEYNLV [Qp (Gαq C terminus peptide)], the “activation of endogenous Gs (BODIPY-FL-GTPγS) after fenoterol in native membranes with β2-AR-mCherry, with 30 μM Qp against no peptide” value with β2-AR-mCerulean [2] was around 7 fold. As for Biotin-DTENIRRVFNDCRDIIQRMHLRQYELL [biotinylated Sp], the Kd with β2-AR-mCerulean [1] was around 30 µM.
